# Results published in the supplement of paper PMC10724198.
# ± gives the standard deviation of the averaged measurements.
# Test system: Saccharomyces cerevisiae
# Experiment: protein stability index of tFT-peptide fusion (C-terminal peptide) (PSI (0-1 scale)); higher = more stable (slower turnover)
# Conditions: genetic background: wild type; temperature: 30 C
# Experimental: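 Multiplexed protein stability (MPS) profiling in S. cerevisiae. Random 12-aa peptides (tFT-X12 library) are fused to the C-terminus of a sfGFP-mCherry tandem fluorescent timer, after mCherry and a GGGS linker. Cells are FACS-sorted into 8 mCherry/sfGFP bins and deep-sequenced. The protein stability index (PSI) is the read-weighted bin average, scaled from 0 (unstable) to 1 (stable). Only peptides with >10 reads are reported; cells were grown at 30 °C in SC-His with glucose.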
# 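Further: PSI is a weighted mean of sequencing reads over stability bins, variants kept only with over 10 reads, mCherry proximal and sfGFP distal, peptide attached via GGGS linker.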
row,Sequence,protein stability index
1,DALVQVFANVGA,0.6629 ± 0.0059
2,DALWLAFFDVID,0.711 ± 0.068
3,DARLSPVRNRLF,0.652 ± 0.17
4,DASVIPAKPRRS,0.69 ± 0.041
5,DAVVPSSTVPLL,0.7001 ± 0.0022
6,DCDVLCGSGRRR,0.703 ± 0.026
7,DCLFQSKLNTYD,0.676 ± 0.041
8,DCNQLRGRAFRL,0.719 ± 0.034
9,DCPAVLLYAVNW,0.501 ± 0.054
10,DCVACFFFYSGG,0.599 ± 0.0099
11,DCWAGGGLCGWG,0.719 ± 0.05
12,DDCFCGRFWVVV,0.6787 ± 0.0032
13,DEEVGWGRGGGW,0.673 ± 0.011
14,DENLYGGFRTSM,0.725 ± 0.0078
15,DFCPCPRWFLRR,0.715 ± 0.086
16,DFIAGGSRPFLV,0.715 ± 0.015
17,DFIEINFDLFPP,0.6382 ± 0.00098
18,DFLRCPPLFEFS,0.721 ± 0.087
19,DFSLQILALCYF,0.558 ± 0.018
20,DFVRVVGDLRWE,0.587 ± 0.041
21,DGAVCSAFASIF,0.701 ± 0.0089
22,DGGGGGRAPRVR,0.726 ± 0.1
23,DGGIVTVSLGWC,0.662 ± 0.064
24,DGKNQGKAEGTK,0.693 ± 0.041
25,DGSPLGSIQQAP,0.673 ± 0.013

row,Sequence,protein stability index
1,DGTRVSFLGHKG,0.665 ± 0.053
2,DGYYRIVRPEAI,0.626 ± 0.018
3,DHPFFCWDGVVK,0.687 ± 0.069
4,DHSWPSTDRVLL,0.676 ± 0.0096
5,DHVSTVEQKLFF,0.701 ± 0.031
6,DIISSKENWVEI,0.68 ± 0.059
7,DINHTSKKKIYI,0.663 ± 0.015
8,DINNDQKCTLMK,0.71 ± 0.013
9,DIRRWQWWFMVR,0.613 ± 0.082
10,DKCRWWRHGVWR,0.687 ± 0.019
11,DKDSTSRYSKPW,0.725 ± 0.022
12,DKFEEENIKKKK,0.74 ± 0.026
13,DKGIHKREKFFT,0.734 ± 0.0054
14,DKNVREGDRETR,0.685 ± 0.017
15,DKRHQSALSFFI,0.736 ± 0.0089
16,DKYFRYKEERTY,0.766 ± 0.16
17,DLERRKGTGVWR,0.6366 ± 0.0051
18,DLGARWLFLLQT,0.622 ± 0.012
19,DLLWASLCLRSY,0.679 ± 0.021
20,DLPATSAETAPK,0.699 ± 0.058
21,DLPRCTLSVEDT,0.703 ± 0.0078
22,DLPVIGHRLPLF,0.684 ± 0.012
23,DLPVPRPGTLQV,0.655 ± 0.045
24,DLRFLQFGFIPW,0.752 ± 0.043
25,DLSMIPEWICIV,0.547 ± 0.054

row,Sequence,protein stability index
1,DLSSFGRLGCQG,0.871 ± 0.037
2,DMHTPATDSPLP,0.783 ± 0.016
3,DMVSLGLAILIT,0.492 ± 0.021
4,DMWSMFSFLYYV,0.507 ± 0.012
5,DNKEIEQTIRNK,0.6304 ± 0.0041
6,DPGKWMRCHICE,0.752 ± 0.035
7,DPPPPSPPASMP,0.663 ± 0.036
8,DPQQRSNPKPII,0.661 ± 0.032
9,DPRRNGAPLRSI,0.676 ± 0.039
10,DPTPLALSPDHP,0.63 ± 0.057
11,DPYYGFRMRIPF,0.691 ± 0.026
12,DQVSGYNVWFGT,0.698 ± 0.028
13,DRAPPPPRSSPL,0.733 ± 0.076
14,DRLGADCPLLSG,0.734 ± 0.028
15,DRLTLEKKGRGM,0.684 ± 0.016
16,DRPNIGIKPKRA,0.613 ± 0.086
17,DRPYPTTFRSSR,0.66 ± 0.017
18,DRRTLSLDLCGS,0.644 ± 0.045
19,DRSMRPISKRWE,0.668 ± 0.037
20,DRSTGVNKSFPS,0.7 ± 0.074
21,DRSTIKIAIHRQ,0.656 ± 0.056
22,DRVHVSNGYLEF,0.684 ± 0.1
23,DRVRGLCIPNGP,0.681 ± 0.043
24,DSIVWVGVTYFL,0.553 ± 0.012
25,DSLSVSLSLVRG,0.696 ± 0.028

row,Sequence,protein stability index
1,DSPLSHPPSPAP,0.6235 ± 0.0019
2,DSPPHPPPASAP,0.714 ± 0.017
3,DSRRDYLHLVFT,0.646 ± 0.023
4,DSSEGRVRIRIR,0.714 ± 0.063
5,DSSFPKSVSKQA,0.679 ± 0.024
6,DSSLDWGREARA,0.649 ± 0.075
7,DSTWGLGLFSVP,0.64 ± 0.033
8,DSVRRMAEGKRE,0.672 ± 0.029
9,DSVVGFCGYWGG,0.706 ± 0.088
10,DSWGPGVSSRRW,0.732 ± 0.044
11,DTRNKHTKSKCQ,0.741 ± 0.051
12,DTSPSPPPLSVL,0.693 ± 0.017
13,DTTSSPPLPLLV,0.623 ± 0.035
14,DTVYSRAIAANA,0.545 ± 0.012
15,DVAWHNYRISGK,0.673 ± 0.015
16,DVDYGEIDYQIK,0.708 ± 0.011
17,DVGSRGPPHTDG,0.687 ± 0.074
18,DVILVSLPPPSV,0.676 ± 0.049
19,DVLASSSVWFLI,0.624 ± 0.0057
20,DVLGCFDYLLFR,0.623 ± 0.03
21,DVLRLRSVFFCG,0.631 ± 0.047
22,DVPKSGLEVWRR,0.627 ± 0.067
23,DVQISSGRGVCS,0.672 ± 0.054
24,DVRMGCVGVSNI,0.71 ± 0.0088
25,DVRNDSSLIIQI,0.688 ± 0.053

row,Sequence,protein stability index
1,DVSIFTNELGFY,0.763 ± 0.01
2,DWFGGSVRVDEN,0.693 ± 0.055
3,DWGAGAASRADR,0.708 ± 0.015
4,DWHLLVRRPFSR,0.714 ± 0.042
5,DWWFGQVYLSKE,0.705 ± 0.011
6,DWWLPLFDWAKL,0.872 ± 0.025
7,DYLVRGPPRASG,0.629 ± 0.021
8,DYNQWSAHHYGV,0.693 ± 0.029
9,DYRLWFRGLPSL,0.697 ± 0.035
10,EAAVTESVTGKR,0.679 ± 0.0088
11,EAIMNSLLFAVD,0.664 ± 0.0088
12,EAKRSRCESAEI,0.672 ± 0.01
13,EARLGGESSAWG,0.655 ± 0.053
14,EAVNLDSWAAGQ,0.828 ± 0.058
15,EAYRVTYPYMYP,0.726 ± 0.0086
16,ECFVCGGGILGG,0.637 ± 0.09
17,ECGLGGGGGLGV,0.689 ± 0.077
18,ECSPRQVPSLAE,0.694 ± 0.028
19,ECVPEVACCPWR,0.729 ± 0.03
20,EDCTKNPERDNS,0.68 ± 0.048
21,EDMRGATGRGAG,0.669 ± 0.028
22,EDTMGKTASHTR,0.699 ± 0.019
23,EEEGRRREEETS,0.67 ± 0.041
24,EEGARAAGGEPQ,0.68 ± 0.036
25,EEREGPVGKGGG,0.708 ± 0.044

row,Sequence,protein stability index
1,EESNEERDQEKT,0.63 ± 0.0065
2,EEVKKRTLKVID,0.738 ± 0.021
3,EEWRRRSTKERR,0.641 ± 0.013
4,EFALVFVRARRA,0.586 ± 0.047
5,EFANKGIKINTA,0.625 ± 0.019
6,EFLGTVRSVWRK,0.669 ± 0.086
7,EFLVSVRPFASP,0.696 ± 0.032
8,EFPSFHDQGAYM,0.738 ± 0.062
9,EFSWGGLAGSFG,0.68 ± 0.024
10,EFTGVYLWERGW,0.7 ± 0.041
11,EGDGQGGGGQGG,0.695 ± 0.011
12,EGEERGEGQVRA,0.675 ± 0.0068
13,EGGCCRMVGVVK,0.633 ± 0.0024
14,EGGGASELGAPN,0.567 ± 0.095
15,EGGGGKGRKRRA,0.712 ± 0.022
16,EGGIYLQMCVGS,0.616 ± 0.035
17,EGGTGNHSVSNQ,0.654 ± 0.022
18,EGGVGGRAPRVR,0.747 ± 0.098
19,EGITFGNDECWC,0.782 ± 0.095
20,EGLNASGGGSGG,0.644 ± 0.07
21,EGLPGGLRGCLR,0.687 ± 0.021
22,EGLVRVCSRHYR,0.67 ± 0.0083
23,EGNPPTRPRSLG,0.682 ± 0.052
24,EGRDDIVEKKRR,0.66 ± 0.063
25,EGREGQRHRRVI,0.669 ± 0.01

row,Sequence,protein stability index
1,EGREGVFGEGRA,0.703 ± 0.031
2,EGRKTLWEGNRG,0.609 ± 0.059
3,EGRRGVGGAWEG,0.6573 ± 0.0037
4,EGSSGVLESRAG,0.671 ± 0.026
5,EGSSVITFAGGG,0.664 ± 0.046
6,EGTSYWDPSVPG,0.741 ± 0.045
7,EHERQQYKNYNK,0.671 ± 0.057
8,EIERTKNEGEEG,0.67 ± 0.058
9,EIRKGGVRSTSN,0.668 ± 0.13
10,EIVTQQKIMDKK,0.711 ± 0.012
11,EKCIGKRGLTKY,0.703 ± 0.022
12,EKERKIKEREVT,0.631 ± 0.018
13,EKGSKTGNKPQT,0.688 ± 0.048
14,EKIKKQITRTRR,0.6652 ± 0.0053
15,EKIVHEGAHGWR,0.681 ± 0.02
16,EKKKKRNKVNQN,0.709 ± 0.064
17,EKKYKKKYKKKE,0.641 ± 0.031
18,EKMILEIKRGRI,0.688 ± 0.036
19,EKNDKEYKRSIS,0.665 ± 0.06
20,EKNKRMEVKAKR,0.67 ± 0.0096
21,EKNTNVDHNRNF,0.7384 ± 0.0061
22,EKPKEGKNETKK,0.734 ± 0.042
23,EKQKNLPQEAKQ,0.7 ± 0.02
24,EKRINLKKRGKT,0.669 ± 0.064
25,ELCAFLFYPFVV,0.599 ± 0.039

row,Sequence,protein stability index
1,ELEGKIMNITVW,0.661 ± 0.024
2,ELGNREGVGYEV,0.781 ± 0.17
3,ELKRVCVHRTER,0.7 ± 0.025
4,ELLHMAAGLGGR,0.643 ± 0.015
5,ELNSGLLRSKET,0.661 ± 0.0095
6,ELQVSGNTIIVV,0.529 ± 0.032
7,ELRSAIRAVPFL,0.737 ± 0.028
8,ELRSVLDRDVRV,0.725 ± 0.049
9,ELWCLGVLGGDV,0.708 ± 0.0089
10,ENCPPETLNRGE,0.686 ± 0.081
11,ENLFLRRVWFCR,0.686 ± 0.022
12,ENLRKLGIALWG,0.682 ± 0.14
13,ENQGEKQKKKKR,0.685 ± 0.013
14,ENRGIEITGKRS,0.727 ± 0.022
15,ENVAKKEKITKK,0.694 ± 0.02
16,EPAAHCGERRHL,0.608 ± 0.064
17,EPAFMRRFMSNK,0.657 ± 0.016
18,EPKLPPCPTPPS,0.721 ± 0.012
19,EPRWPCNVAGIV,0.706 ± 0.13
20,EQKYHTCEDAQK,0.685 ± 0.1
21,EQQTPIKKNKQR,0.826 ± 0.036
